Assay results from article PMC2731889.

Molecular target: ArdA protein from the conjugative transposon Tn916 (Enterococcus faecalis)
Test: crystal structure

**Q.** How did the stoichiometry N turn out when “ArdA protein from the conjugative transposon Tn916 (natural protein)” was run?
**A.** Its stoichiometry N is 2.
